In publication PMC10770428 (Current Research in Structural Biology, 2023):

T1: C-terminal FH1-FH2 FMN1 (amino acids 870–1466) (mouse, UniProt Q05860 870-1466)
T1 sequence (looked up): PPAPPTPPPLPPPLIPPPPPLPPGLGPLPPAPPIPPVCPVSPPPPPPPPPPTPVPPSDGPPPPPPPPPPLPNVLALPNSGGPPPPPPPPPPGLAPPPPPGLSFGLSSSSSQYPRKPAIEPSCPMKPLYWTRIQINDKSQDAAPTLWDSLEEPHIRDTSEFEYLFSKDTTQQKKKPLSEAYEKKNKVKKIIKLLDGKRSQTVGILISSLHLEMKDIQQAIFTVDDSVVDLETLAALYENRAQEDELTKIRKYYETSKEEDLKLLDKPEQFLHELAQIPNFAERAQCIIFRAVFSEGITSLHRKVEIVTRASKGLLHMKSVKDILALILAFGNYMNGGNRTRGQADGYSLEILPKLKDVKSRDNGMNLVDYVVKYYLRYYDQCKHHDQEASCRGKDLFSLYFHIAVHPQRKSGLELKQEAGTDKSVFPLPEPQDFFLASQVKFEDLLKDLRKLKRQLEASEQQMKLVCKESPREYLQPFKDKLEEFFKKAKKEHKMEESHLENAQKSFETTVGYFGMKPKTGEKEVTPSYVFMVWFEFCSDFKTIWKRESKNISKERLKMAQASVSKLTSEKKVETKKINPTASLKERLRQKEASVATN

B1: N-terminal WW1-WW2 FNBP4 (amino acids 214–629) (domain or fragment, UniProt Q8N3X1 214-629, looked up)
chain: GIEMGDWQEVWDENTGCYYYWNTQTNEVTWELPQYLATQVQGLQHYQPSSVPGAETSFVVNTDIYSKEKTISVSSSKSGPVIAKREVKKEVNEGIQALSNSEEEKKGVAASLLAPLLPEGIKEEEERWRRKVICKEEPVSEVKETSTTVEEATTIVKPQEIMLDNIEDPSQEDLCSVVQSGESEEEEEQDTLELELVLERKKAELRALEEGDGSVSGSSPRSDISQPASQDGMRRLMSKRGKWKMFVRATSPESTSRSSSKTGRDTPENGETAIGAENSEKIDENSDKEMEVEESPEKIKVQTTPKVEEEQDLKFQIGELANTLTSKFEFLGINRQSISNFHVLLLQTETRIADWREGALNGNYLKRKLQDAAEQLKQYEINATPKGWSCHWDRDHRRYFYVNEQSGESQWEFPDG

Columns and labels:
[1] = target: T1, C-terminal FH1-FH2 FMN1 (amino acids …); assay: SPR
[2] = target: B1; assay: SPR

Kd [1]	koff [1]	kon [1]	Kd [2]	koff [2]	kon [2]	Binder
2 nM	0.00127 s⁻¹	637000 M⁻¹ s⁻¹	–	–	–	WW1 FNBP4 (amino acids 214–430) (domain or fragment, UniProt Q8N3X1 214-430, looked up) GIEMGDWQEVWDENTGCYYYWNTQTNEVTWELPQYLATQVQGLQHYQPSSVPGAETSFVVNTDIYSKEKTISVSSSKSGPVIAKREVKKEVNEGIQALSNSEEEKKGVAASLLAPLLPEGIKEEEERWRRKVICKEEPVSEVKETSTTVEEATTIVKPQEIMLDNIEDPSQEDLCSVVQSGESEEEEEQDTLELELVLERKKAELRALEEGDGSVSG
1.84 nM	0.000571 s⁻¹	310000 M⁻¹ s⁻¹	–	–	–	B1
–	–	–	0.56 nM	0.0107 s⁻¹	1.94e+07 M⁻¹ s⁻¹	FH1 FMN1 (amino acids 870–970) (domain or fragment, mouse, UniProt Q05860 870-970, looked up) PPAPPTPPPLPPPLIPPPPPLPPGLGPLPPAPPIPPVCPVSPPPPPPPPPPTPVPPSDGPPPPPPPPPPLPNVLALPNSGGPPPPPPPPPPGLAPPPPPGL
